In experiment [1] the target is human PD-1 (human, UniProt Q15116 25-167). Description: ELISA, plate coated with the antigen.
The target in experiment [2] is T1, human B7H6 (human, UniProt Q68D85 25-262).
T1 construct: also called NCR3LG1
T1 sequence (looked up): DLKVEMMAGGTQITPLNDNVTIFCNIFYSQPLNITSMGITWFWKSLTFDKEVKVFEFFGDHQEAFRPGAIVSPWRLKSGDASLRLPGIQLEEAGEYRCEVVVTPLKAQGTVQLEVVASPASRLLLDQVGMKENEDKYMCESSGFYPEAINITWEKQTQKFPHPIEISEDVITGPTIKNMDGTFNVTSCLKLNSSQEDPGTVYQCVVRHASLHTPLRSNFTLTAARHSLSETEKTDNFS
Put plainly: ELISA, plate coated with the antigen. A general note: In an ELISA, binding on a coated surface is turned into a signal by an enzyme label.

Experiment [3] concerns the target T2, human B7H7 (human, UniProt Q9UM44 23-344).
T2 construct: also called HHLA2
T2 sequence (looked up): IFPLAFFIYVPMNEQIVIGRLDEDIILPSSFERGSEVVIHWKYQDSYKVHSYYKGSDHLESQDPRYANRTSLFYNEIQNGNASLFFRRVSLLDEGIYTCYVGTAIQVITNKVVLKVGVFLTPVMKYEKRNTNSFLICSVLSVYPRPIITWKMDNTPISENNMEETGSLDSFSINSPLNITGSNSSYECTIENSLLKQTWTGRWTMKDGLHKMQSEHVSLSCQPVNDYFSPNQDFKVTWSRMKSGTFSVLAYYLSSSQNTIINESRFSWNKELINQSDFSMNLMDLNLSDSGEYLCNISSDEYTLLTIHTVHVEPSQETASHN
Description: ELISA, plate coated with the antigen.

The target in experiment [4] is human CTLA4 (human, UniProt P16410 36-162). Description: ELISA, plate coated with the antigen.
Experiment [5] addresses T3, human B7H3 (human, UniProt Q5ZPR3 29-461, limits assumed).
T3 construct: also called CD276
T3 sequence (looked up): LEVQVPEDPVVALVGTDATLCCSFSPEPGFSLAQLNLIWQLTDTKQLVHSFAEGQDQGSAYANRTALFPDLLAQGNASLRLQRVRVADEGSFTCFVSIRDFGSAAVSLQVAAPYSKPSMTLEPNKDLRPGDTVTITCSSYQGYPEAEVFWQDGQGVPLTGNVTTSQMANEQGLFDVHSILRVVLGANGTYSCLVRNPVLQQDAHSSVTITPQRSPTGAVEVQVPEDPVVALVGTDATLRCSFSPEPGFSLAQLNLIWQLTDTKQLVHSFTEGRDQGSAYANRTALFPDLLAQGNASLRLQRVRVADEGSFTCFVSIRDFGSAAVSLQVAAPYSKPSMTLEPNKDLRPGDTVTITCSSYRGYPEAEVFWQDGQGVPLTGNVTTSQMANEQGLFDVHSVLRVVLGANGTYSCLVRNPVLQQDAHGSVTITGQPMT
Description: ELISA, plate coated with the antigen.

In experiment [6] the target is T4, recombinant human VISTA (His-tagged) (human, UniProt Q9H7M9 33-194).
T4 construct: bought soluble protein (Sino Biological); also called hVISTA; human VISTA polypeptide
Put plainly: antigen-binding ELISA; HMBD-002 in F7, day 30 at 40°C.

The target of experiment [7] is T4, recombinant human VISTA (His-tagged). Description: antigen-binding ELISA; HMBD-002 in F6, day 10 at 40°C.
Experiment [8] shares this target. Put plainly: antigen-binding ELISA; HMBD-002 in F4, day 10 at 40°C.
Experiment [9] has the same target. Description: antigen-binding ELISA; HMBD-002 in F2, day 20 at 40°C.
Experiment [10] has the same target. Put plainly: antigen-binding ELISA; HMBD-002 in F9, day 10 at 40°C.
Experiment [11] shares this target. Description: ELISA on coated human VISTA, antibody diluted in buffer of pH 6.
Description: (§1) 384-well plates were coated with 1 μg/ml of target antigen diluted in PBS for 16 hrs at 4° C. […] After washing, plates were developed with colorimetric detection substrate 3,3′,5,5′-tetramethylbenzidine (Turbo-TMB; Pierce) for 10 min.
Experiment [12] concerns the target T5, recombinant cynomolgus macaque VISTA (His-tagged) (cynomolgus macaque, UniProt A0A7N9IB00 33-194).
T5 construct: also called cyno VISTA; cynomolgus monkey VISTA
Put plainly: ELISA, NHP VISTA-HIS protein coated; ELISA, NHP (cynomolgus) VISTA-HIS.
Description: as §1

Experiment [13] has as its target T4, recombinant human VISTA (His-tagged). Description: BLI (Octet QK384): His-tagged human VISTA on anti-Penta-HIS tips, V4 as analyte; value of the line above the sensorgram, which differs from the table below it. In general terms: BLI is a label-free optical method that tracks binding on a fibre tip over time.
Description: All measurements were performed at 25° C. with agitation at 1000 rpm. Kinetic measurements for antigen binding were performed by loading anti-VISTA antibody at different concentrations (indicated in the Figures) for 120 s, followed by a 120 s dissociation time by transferring the biosensors into assay buffer containing wells. Sensograms were referenced for buffer effects and then fitted using the Octet QK384 user software (Pall ForteBio, USA).
Kinetic responses were subjected to a global fitting using a one site binding model to obtain values for association (kon), dissociation (koff) rate constants and the equilibrium dissociation constant (KD). Only curves that could be reliably fitted with the software (R²>0.90) were included in the analysis.
The target in experiment [14] is T6, recombinant mouse VISTA (His-tagged) (mouse, UniProt Q9D659 33-191).
T6 construct: also called murine VISTA; mVISTA
T6 sequence (looked up): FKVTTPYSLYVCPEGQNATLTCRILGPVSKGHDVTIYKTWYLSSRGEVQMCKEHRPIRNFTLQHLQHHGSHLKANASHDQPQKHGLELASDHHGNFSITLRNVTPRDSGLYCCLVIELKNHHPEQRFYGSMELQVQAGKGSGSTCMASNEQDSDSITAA
Description: ELISA, target protein coated, % Binding against log M of antibody.
Description: (§2) ELISAs were used to determine the binding specificity of the antibodies.
(§3) Briefly, 96-well plates (Nunc, Denmark) were coated with 1 μg/ml of target protein in phosphate-buffered saline (PBS) for 2 h at 37° C. After blocking for 1 h with 10% BSA in Tris buffer saline (TBS) at room temperature, the test antibody was serially diluted (12 point serial dilution) with the highest concentration being 30 μg/ml and added to the plate, in the. Post 1 h incubation at room temperature, plates were washed three times with TBS containing 0.05% Tween 20 (TBS-T) and were then incubated with a HRP-conjugated anti-mouse IgG antibody (Life Technologies, Inc., USA) for 1 h at room temperature. After washing, plates were developed with colorimetric detection substrate 3,3′,5,5′-tetramethylbenzidine (Turbo-TMB; Pierce, USA) for 15 min at room temperature.

For experiment [15], the target named is human HER3 (human, UniProt P21860 20-643). Described as above.
Description: as §2, §3
The target in experiment [16] is T4, recombinant human VISTA (His-tagged). Described as above.
Description: as §2, §3
Experiment [17] addresses T5, recombinant cynomolgus macaque VISTA …. The description is as above.
Description: as §2, §3
The target in experiment [18] is T7, human PD-L1 (human, UniProt Q9NZQ7 19-239).
T7 construct: captured through a His tag in the BLI experiments; also called hPD-L1; B7H1/PDL-1
Described as above.
Description: as §2, §3

Sequence of human PD-1 (Q15116 25-167 limits assumed): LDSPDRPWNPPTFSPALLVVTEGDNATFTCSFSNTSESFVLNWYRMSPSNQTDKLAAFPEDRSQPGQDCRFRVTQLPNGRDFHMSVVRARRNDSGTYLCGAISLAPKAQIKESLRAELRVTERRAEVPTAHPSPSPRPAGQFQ
T7 sequence (Q9NZQ7 19-239 limits assumed): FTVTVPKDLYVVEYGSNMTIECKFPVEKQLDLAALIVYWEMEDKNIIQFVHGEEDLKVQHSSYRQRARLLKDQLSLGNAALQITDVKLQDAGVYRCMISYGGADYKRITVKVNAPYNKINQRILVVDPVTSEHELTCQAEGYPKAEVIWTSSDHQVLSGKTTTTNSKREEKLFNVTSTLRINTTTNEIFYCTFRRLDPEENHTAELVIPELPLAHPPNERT
Sequence of human CTLA4 (P16410 36-162 limits assumed): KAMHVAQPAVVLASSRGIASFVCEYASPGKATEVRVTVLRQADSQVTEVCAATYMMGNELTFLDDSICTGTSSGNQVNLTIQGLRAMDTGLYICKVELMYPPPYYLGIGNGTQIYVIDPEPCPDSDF

B1: anti-VISTA clone V4-C26 IgG1 (antibody)
heavy: not shown
light: EIVLTQSPATLSLSPGERATLSCRASSSVGYIHWYQQKPGQAPRPIIYTTSNRATGIPARFSGSGSGTDNTLTISSLEPEDSAVYYCQQWSSYPPITFGGGTKLEVKRTVAAPSVFIFPPSDEQLKSGTASVVCLLNNFYPREAKVQWKVDNALQSGNSQESVTEQDSKDSTYSLSSTLTLSKADYEKHKVYACEVTHQGLSSPVTKSFNRGEC
As for B1, the binding result in [1], in experiment [2], in experiment [3], in [4] and in experiment [5] was “no binding (tested: log -7.5 M)” throughout.

B2: V4-C26 hIgG4 (antibody)
heavy: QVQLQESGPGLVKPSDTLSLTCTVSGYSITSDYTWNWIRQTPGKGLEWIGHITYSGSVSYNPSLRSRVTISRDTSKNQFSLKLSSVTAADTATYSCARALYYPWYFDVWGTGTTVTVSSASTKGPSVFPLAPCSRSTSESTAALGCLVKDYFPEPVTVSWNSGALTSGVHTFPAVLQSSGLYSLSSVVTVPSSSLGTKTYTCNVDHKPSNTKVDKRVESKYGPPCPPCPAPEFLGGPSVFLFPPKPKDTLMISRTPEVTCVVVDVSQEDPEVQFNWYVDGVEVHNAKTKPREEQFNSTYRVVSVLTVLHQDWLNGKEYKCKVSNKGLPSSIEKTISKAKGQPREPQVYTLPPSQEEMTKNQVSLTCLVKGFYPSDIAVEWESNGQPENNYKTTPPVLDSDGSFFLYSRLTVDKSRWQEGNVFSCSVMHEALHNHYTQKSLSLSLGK
light: EIVLTQSPATLSLSPGERATLSCRASSSVGYIHWYQQKPGQAPRPIIYTTSNRATGIPARFSGSGSGTDNTLTISSLEPEDSAVYYCQQWSSYPPITFGGGTKLEVKRTVAAPSVFIFPPSDEQLKSGTASVVCLLNNFYPREAKVQWKVDNALQSGNSQESVTEQDSKDSTYSLSSTLTLSKADYEKHKVYACEVTHQGLSSPVTKSFNRGEC
notes: human IgG4 (S228P)/kappa format; also called HMBD-002; HMBD-002-V4C26
With B2, the EC50 (in general, the concentration that produces a half-maximal response) in [6] was determined as 0.0217 nM; in experiment [7], 0.0306 nM; in experiment [8] it was 0.0325 nM; in [9], 0.0197 nM; in [10], 0.0305 nM; in experiment [11], 0.0589 nM. Moreover, the EC50 in [12] was determined as 0.0121 nM.

B3: anti-VISTA clone 4M2-C12 IgG1 (antibody)
heavy: not shown
light: DIVITQTPAILSTSPGEKVTMTCRASSSVGYIHWYQQKPGSSPKPWIYATSNLASGVPARFSGSGSGTSNSLTITRVEAEDAATYYCQQWSSYPPITFGGGTKLEVKRTVAAPSVFIFPPSDEQLKSGTASVVCLLNNFYPREAKVQWKVDNALQSGNSQESVTEQDSKDSTYSLSSTLTLSKADYEKHKVYACEVTHQGLSSPVTKSFNRGEC
notes: mouse variable regions on human IgG1/kappa constant regions; also called V4; V4pr
For B3, in experiment [13], the koff (as a rule, the rate constant with which the complex falls apart) was less than 4.54e-07 s⁻¹. Further, the EC50 in experiment [14] is 5.93 nM; in experiment [16], 0.256 nM; in [17], 0.282 nM. Moreover, the binding result in experiment [15] is recorded as “no binding (tested: about 10^-6.2 M (log M axis))”; in [18], “no binding (tested: about 10^-6.7 M (log M axis))”.

These data come from US20250313631A1 (HUMMINGBIRD BIOSCIENCE PTE, published 2025).
